According to PMC3607624 (Journal of molecular biology, 2011):

What was measured:
F-actin = F-actin (UniProt P68135 1-377); test: co-sedimentation
[1] = target: microtubules (tubulin heterodimer) (UniProt P02550 1-451); test: co-sedimentation
Chain of microtubules (tubulin heterodimer) (P02550 whole entry, chain 1 of 2): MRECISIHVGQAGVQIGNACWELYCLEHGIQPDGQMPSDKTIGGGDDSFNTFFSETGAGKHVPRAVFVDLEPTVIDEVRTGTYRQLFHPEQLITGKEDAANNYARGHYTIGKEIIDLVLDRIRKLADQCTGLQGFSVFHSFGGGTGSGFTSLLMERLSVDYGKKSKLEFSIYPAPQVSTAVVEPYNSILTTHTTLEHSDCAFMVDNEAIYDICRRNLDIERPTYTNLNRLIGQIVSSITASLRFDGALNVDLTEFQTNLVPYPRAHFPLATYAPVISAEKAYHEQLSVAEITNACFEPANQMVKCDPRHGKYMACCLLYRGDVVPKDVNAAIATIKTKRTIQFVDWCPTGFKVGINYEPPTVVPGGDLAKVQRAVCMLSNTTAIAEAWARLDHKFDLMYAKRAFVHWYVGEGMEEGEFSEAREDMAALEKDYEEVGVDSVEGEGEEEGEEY
Chain of microtubules (tubulin heterodimer) (P02554 whole entry, chain 2 of 2, further chain): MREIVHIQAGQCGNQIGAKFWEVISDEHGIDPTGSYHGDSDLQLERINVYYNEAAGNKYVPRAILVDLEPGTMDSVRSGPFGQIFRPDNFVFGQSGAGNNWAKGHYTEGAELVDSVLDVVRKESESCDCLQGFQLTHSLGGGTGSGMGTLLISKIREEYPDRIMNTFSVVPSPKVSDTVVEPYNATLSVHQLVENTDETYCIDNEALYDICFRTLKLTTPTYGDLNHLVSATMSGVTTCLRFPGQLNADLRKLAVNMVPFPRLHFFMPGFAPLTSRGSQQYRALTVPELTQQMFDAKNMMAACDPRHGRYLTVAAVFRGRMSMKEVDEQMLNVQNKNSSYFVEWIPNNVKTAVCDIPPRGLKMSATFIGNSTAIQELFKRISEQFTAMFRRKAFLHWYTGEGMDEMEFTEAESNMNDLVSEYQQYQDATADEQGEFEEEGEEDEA

Kd (F-actin): 13.7 ± 2.6 µM
Kd [1]: 1.7 ± 0.5 µM
B1: Dictyostelium myosin 7 N-terminal MyTH4/FERM domain (MF1) (domain or fragment, Dictyostelium discoideum, UniProt Q9U1M8 1085-1620, looked up)
chain: SATATGNNTPNSSSASASQSTNQVNPQPTVSVVELPQILNDEEISLYSFYDYANKNFNIEKLKQKDDIFSYQKSHIKSSLLVHSDAEQTKVAVEIFSKVLHYMNSNPLVSKKDPADFYSPVKFILTKGLAIESLRDEIYCQLIKQSTSNPIQDLNIRVWELIHFTCSTFPPTRKLIKYFAAYLKTTIQQSDVSKSVKDSAQASYFILQRFTLNGARKQVPSVTELESIKENRPIFVRITATDGSLKGLHIDSATTCQESSNDLSQRSRMRVNSKENGFTIIESFNGIERDIAPTDKLCDVLSKVENLQATLSSKIQVNFKFVFKKKLFFDNITNNVPTTSINVENEFYYHQLFNDLFNSNYCKDQDYQISIGSLKLQFESSDYTDEIRAWLPGNGRGKYFTTDIEKNRFDDFINKYKSHKGLSPEDAKKQMVQLLEKHPLANCSLVVCEHQSESLPYPKNFVLALNVNGINIYDPATSKMLESVKYSNQSQQNLKSDDKSVSIILENKSTLQAFTGDVQKLVSLIKEYSLYLRNNA
